The target in test [1] is T1, ΔN19.1.1 deletion mutant of Osf2 (His-tagged) (mouse, UniProt Q08775 99-607).
T1 construct: counted with Met69 of the cDNA as residue 1
The test is described as follows: EMSA with labeled OSE2 oligonucleotide, with or without Cbfβ. On the technique in general: A gel shift assay detects complexes by their altered migration in electrophoresis.
Procedure: (§1) DNA-binding assays were performed with 5 fmol of ^32P-labeled double-stranded OSE2 oligonucleotides, in a buffer containing 20 mM Tris-HCl, pH 8.0, 10 mM NaCl, 3 mM EGTA, 0.05% NP-40, 5 mM DTT, and 2 μg of poly (dI.dC).poly (dI.dC), with equivalent amounts of wild type or mutant proteins. […] Typically, 100 ng of fusion protein bound to glutathione-agarose beads was used for each assay, while the amount of labeled protein in the assay was determined using fluorography.

In test [2] the target is T2, histidine-tagged recombinant Osf2/Cbfa1 polypeptide (His-Osf2/Cbfa1) (mouse, UniProt Q08775 80-607).
T2 construct: Bacterially expressed, enriched on Ni resin; also called His-tagged Osf2/Cbfa1 polypeptide
Described as above.
Procedure: as §1

T2 sequence (Q08775 other isoform, or with tags, fused parts or gaps): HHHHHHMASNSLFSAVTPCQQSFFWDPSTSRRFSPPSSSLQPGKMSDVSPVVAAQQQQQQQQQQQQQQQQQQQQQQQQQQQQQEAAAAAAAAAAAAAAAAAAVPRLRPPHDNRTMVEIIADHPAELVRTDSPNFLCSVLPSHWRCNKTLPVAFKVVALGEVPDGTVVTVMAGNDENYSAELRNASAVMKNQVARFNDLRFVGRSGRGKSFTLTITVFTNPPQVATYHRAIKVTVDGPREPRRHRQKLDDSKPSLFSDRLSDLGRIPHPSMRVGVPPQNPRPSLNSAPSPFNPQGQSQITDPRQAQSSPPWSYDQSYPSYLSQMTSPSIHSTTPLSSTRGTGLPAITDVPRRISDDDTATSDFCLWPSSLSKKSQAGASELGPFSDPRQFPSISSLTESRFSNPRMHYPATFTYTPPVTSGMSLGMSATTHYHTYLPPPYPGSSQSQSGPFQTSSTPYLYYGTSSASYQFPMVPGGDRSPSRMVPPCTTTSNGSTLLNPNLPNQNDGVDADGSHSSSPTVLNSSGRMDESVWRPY
T1 sequence (Q08775 other isoform, or with tags, fused parts or gaps mutant): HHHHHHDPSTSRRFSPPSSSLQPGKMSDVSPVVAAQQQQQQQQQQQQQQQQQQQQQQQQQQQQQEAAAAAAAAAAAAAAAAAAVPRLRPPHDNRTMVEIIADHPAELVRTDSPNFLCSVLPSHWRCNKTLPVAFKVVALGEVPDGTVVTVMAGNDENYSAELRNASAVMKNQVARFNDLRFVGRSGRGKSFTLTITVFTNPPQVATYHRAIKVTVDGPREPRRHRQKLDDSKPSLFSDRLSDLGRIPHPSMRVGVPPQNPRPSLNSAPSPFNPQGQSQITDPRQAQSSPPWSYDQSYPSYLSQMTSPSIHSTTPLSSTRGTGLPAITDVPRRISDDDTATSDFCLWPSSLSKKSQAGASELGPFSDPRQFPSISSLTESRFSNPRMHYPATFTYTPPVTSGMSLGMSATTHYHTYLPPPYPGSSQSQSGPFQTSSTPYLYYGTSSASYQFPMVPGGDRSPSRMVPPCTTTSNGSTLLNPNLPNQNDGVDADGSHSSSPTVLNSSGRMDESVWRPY

B1: histidine-tagged Cbfβ (other)
chain: HHHHHHMPRVVPDQRSKFENEEFFRKLSRECEIKYTGFRDRPHEERQTRFQNACRDGRSEIAFVATGTNLSLQFFPASWQGEQRQTPSREYVDLEREAGKVYLKAPMILNGVCVIWKGWIDLHRLDGMGCLEFDEERAQQEDALAQQAFEEARRRTREFEDRDRSHREEMEARRQQDPSPGSNLGGGDDLKLR
notes: Recombinant Cbfβ added in EMSA; also called Cbf]3
As for B1, the binding result in test [1] and in test [2] was “no binding” each time.

The values above are taken from patent US6518063 (University of Texas, dated 1998).
